Reference: patent US20180057542A1 (University of Washington, published 2018)

What was measured:
[1] = target: T1, urea-expanded bacteriophage lambda capsid shell (bacteriophage lambda, UniProt P03713 1-341; P03710 23-533); assay: in vitro capsid decoration, SDS-PAGE of isolated decorated capsids
T1 construct: also called expanded capsid; expanded capsid lattice
T1 sequence 1: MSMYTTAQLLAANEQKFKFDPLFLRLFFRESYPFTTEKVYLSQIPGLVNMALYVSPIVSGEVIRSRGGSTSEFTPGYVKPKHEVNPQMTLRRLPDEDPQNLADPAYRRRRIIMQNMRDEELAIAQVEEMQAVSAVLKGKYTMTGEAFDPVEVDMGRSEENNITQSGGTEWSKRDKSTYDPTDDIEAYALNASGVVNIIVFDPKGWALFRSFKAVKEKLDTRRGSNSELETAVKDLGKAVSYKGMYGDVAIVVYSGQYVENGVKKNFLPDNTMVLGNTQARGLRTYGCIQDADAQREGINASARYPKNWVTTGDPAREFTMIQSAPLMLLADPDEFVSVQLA
T1 sequence 2: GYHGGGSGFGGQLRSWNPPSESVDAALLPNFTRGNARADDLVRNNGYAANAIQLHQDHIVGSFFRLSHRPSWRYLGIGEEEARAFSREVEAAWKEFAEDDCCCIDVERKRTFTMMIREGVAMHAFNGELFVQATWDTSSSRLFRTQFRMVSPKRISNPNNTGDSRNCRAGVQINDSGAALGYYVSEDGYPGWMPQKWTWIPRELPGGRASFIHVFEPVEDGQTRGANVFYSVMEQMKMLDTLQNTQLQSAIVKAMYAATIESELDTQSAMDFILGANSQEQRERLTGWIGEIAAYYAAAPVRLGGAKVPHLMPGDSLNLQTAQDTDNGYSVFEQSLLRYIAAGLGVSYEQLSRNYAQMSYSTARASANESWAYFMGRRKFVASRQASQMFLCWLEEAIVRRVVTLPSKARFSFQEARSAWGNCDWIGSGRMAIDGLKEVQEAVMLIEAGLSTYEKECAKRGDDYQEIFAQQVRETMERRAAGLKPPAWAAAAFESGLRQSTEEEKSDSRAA

[2] = target: T1, urea-expanded bacteriophage lambda …; assay: SDS-PAGE of capsids decorated with gpD-WT alone and separated from unreacted protein
[3] = target: T2, Concanavalin A (UniProt P02866 30-281); assay: agglutination assay (absorbance at 350 nm) of decorated capsids with Concanavalin A
T2 construct: Used at 1 uM in the agglutination assay; It recognises the mannose conjugated to gpD(S42C); also called Con A; ConA

B1: gpD(S42C::sMannose) (other)
chain: HHHHHHMTSKETFTHYQPQGNSDPAHTATAPGGLSAKAPAMTPLMLDTCSRKLVAWDGTTDGAAVGILAVAADQTSTTLTFYKSGTFRYEDVLWPEAASDETKKRTAFAGTAISIV
modifications: 6'-maleimidohexanamido-polyethyleneglycol mannoside (sMannose) on Cys42 (numbering without the N-terminal methionine)
notes: The presence of the H6 tag is therefore not certain; also called gpD-mannose; gpD glycoprotein
Surface Density (% relative to gpD) [1]: 82 % relative to gpD

B2: H6-gpD-GFP (other)
chain: HHHHHHMTSKETFTHYQPQGNSDPAHTATAPGGLSAKAPAMTPLMLDTSSRKLVAWDGTTDGAAVGILAVAADQTSTTLTFYKSGTFRYEDVLWPEAASDETKKRTAFAGTAISIV
notes: HIS-tagged fusion of an N-terminal gpD domain and a C-terminal GFP domain; also called gpD-Green Fluorescent Protein; GFP-tagged gpD
Surface Density (% relative to gpD) [1]: 77 % relative to gpD

B3: wild-type bacteriophage lambda gpD decoration protein (other)
chain: MTSKETFTHYQPQGNSDPAHTATAPGGLSAKAPAMTPLMLDTSSRKLVAWDGTTDGAAVGILAVAADQTSTTLTFYKSGTFRYEDVLWPEAASDETKKRTAFAGTAISIV
notes: Monomer in solution; adds to the expanded capsid as trimer spikes at the 140 three-fold axes (420 copies per shell); also called gpD-WT; gpD-wt
Surface Density (% relative to gpD) [1]: 100 % relative to gpD
ratio of major capsid protein (gpE) to gpD-WT in the decorated particles [2]: ~1 ratio gpE:gpD-WT
binding result [3]: no binding (tested: 1 µM ConA, 1 µM gpD equivalent)

B4: gpD(S42C) (other)
chain: MTSKETFTHYQPQGNSDPAHTATAPGGLSAKAPAMTPLMLDTCSRKLVAWDGTTDGAAVGILAVAADQTSTTLTFYKSGTFRYEDVLWPEAASDETKKRTAFAGTAISIV
Surface Density (% relative to gpD) [1]: 90 % relative to gpD
binding result [3]: no binding (tested: 1 µM ConA, 1 µM gpD equivalent)
